# Target: DLL4 (human, UniProt Q9NR61)
# Assay: ELISA
# Sequence of DLL4 (Q9NR61 27-524): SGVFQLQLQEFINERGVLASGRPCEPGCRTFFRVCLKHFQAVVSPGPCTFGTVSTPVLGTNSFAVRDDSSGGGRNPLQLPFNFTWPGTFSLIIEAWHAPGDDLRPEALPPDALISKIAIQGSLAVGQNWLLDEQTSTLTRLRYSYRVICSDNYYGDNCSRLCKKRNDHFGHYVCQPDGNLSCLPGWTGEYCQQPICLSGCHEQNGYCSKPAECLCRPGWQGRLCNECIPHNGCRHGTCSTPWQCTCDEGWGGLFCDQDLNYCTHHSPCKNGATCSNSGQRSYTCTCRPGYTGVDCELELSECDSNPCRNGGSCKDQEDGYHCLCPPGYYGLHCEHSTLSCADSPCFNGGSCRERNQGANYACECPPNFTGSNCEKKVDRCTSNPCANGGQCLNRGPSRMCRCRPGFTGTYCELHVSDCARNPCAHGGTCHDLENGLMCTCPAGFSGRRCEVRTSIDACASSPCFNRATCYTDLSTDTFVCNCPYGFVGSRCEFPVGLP
row,EC50 [pM],Binder
1,10600,"DVD442 DLL4 arm (antibody, V domains shown, DVD-Ig inner) VH: QVQLVQSGAEVKKPGASVKISCKASGYSFTAYYIHWVKQAPGQGLEWIGYISSYNGATNYNQKFKGRVTFTTDTSTSTAYMELRSLRSDDTAVYYCARDYDYDVGMDYWGQGTLVTVSS VL: DIVMTQSPDSLAVSLGERATISCRASESVDNYGISFMKWFQQKPGQPPKLLIYAASNQGSGVPDRFSGSGSGTDFTLTISSLQAEDVAVYYCQQSKEVPWTFGGGTKVEIKR"
2,1990,"DVD450 DLL4 arm (antibody, V domains shown, DVD-Ig inner) VH: QVQLVQSGAEVKKPGASVKISCKASGYSFTAYYIHWVKQAPGQGLEWIGYISSYNGATNYNQKFKGRVTFTTDTSTSTAYMELRSLRSDDTAVYYCARDYDYDVGMDYWGQGTLVTVSS VL: DIVMTQSPDSLAVSLGERATISCRASESVDNYGISFMKWFQQKPGQPPKLLIYAASNQGSGVPDRFSGSGSGTDFTLTISSLQAEDVAVYYCQQSKEVPWTFGGGTKVEIKR"
3,200,"DVD443 DLL4 arm (antibody, V domains shown, DVD-Ig outer) VH: QVQLVQSGAEVKKPGASVKISCKASGYSFTAYYIHWVKQAPGQGLEWIGYISSYNGATNYNQKFKGRVTFTTDTSTSTAYMELRSLRSDDTAVYYCARDYDYDVGMDYWGQGTLVTVSS VL: DIVMTQSPDSLAVSLGERATISCRASESVDNYGISFMKWFQQKPGQPPKLLIYAASNQGSGVPDRFSGSGSGTDFTLTISSLQAEDVAVYYCQQSKEVPWTFGGGTKVEIKR"
4,1010,"DVD454 DLL4 arm (antibody, V domains shown, DVD-Ig inner) VH: QVQLVQSGAEVKKPGASVKISCKASGYSFTAYYIHWVKQAPGQGLEWIGYISSYNGATNYNQKFKGRVTFTTDTSTSTAYMELRSLRSDDTAVYYCARDYDYDVGMDYWGQGTLVTVSS VL: DIVMTQSPDSLAVSLGERATISCRASESVDNYGISFMKWFQQKPGQPPKLLIYAASNQGSGVPDRFSGSGSGTDFTLTISSLQAEDVAVYYCQQSKEVPWTFGGGTKVEIKR"
5,2480,"DVD456 DLL4 arm (antibody, V domains shown, DVD-Ig inner) VH: QVQLVQSGAEVKKPGASVKISCKASGYSFTAYYIHWVKQAPGQGLEWIGYISSYNGATNYNQKFKGRVTFTTDTSTSTAYMELRSLRSDDTAVYYCARDYDYDVGMDYWGQGTLVTVSS VL: DIVMTQSPDSLAVSLGERATISCRASESVDNYGISFMKWFQQKPGQPPKLLIYAASNQGSGVPDRFSGSGSGTDFTLTISSLQAEDVAVYYCQQSKEVPWTFGGGTKVEIKR"
6,250,"DVD533 DLL4 arm (antibody, V domains shown, DVD-Ig outer) VH: EVQLQQSGPELEKPGASVKISCKASGYSFTGYNMNWVKQSNGKSLEWIGNIDPYFGGTNYNQKFKGKATLTVDKSSSTAYMQLKSLTSEDSAVYYCARNYDYDGGCFDYWGQGTTLTVSS VL: QAVVTQESALTTSPGETVTLTCRSSTGAVTTSNYANWVQEKPDHLFTGLIGGTNNRAPGVPARFSGSLIGDKAALTITGAQTEDEAIYFCALWYSNHWVFGGGTKLTVLG"
7,100,"DVD517 DLL4 arm (antibody, V domains shown, DVD-Ig outer) VH: EVQLQQSGPELEKPGASVKISCKASGYSFTGYNMNWVKQSNGKSLEWIGNIDPYFGGTNYNQKFKGKATLTVDKSSSTAYMQLKSLTSEDSAVYYCARNYDYDGGCFDYWGQGTTLTVSS VL: QAVVTQESALTTSPGETVTLTCRSSTGAVTTSNYANWVQEKPDHLFTGLIGGTNNRAPGVPARFSGSLIGDKAALTITGAQTEDEAIYFCALWYSNHWVFGGGTKLTVLG"
8,4330,"DVD516 DLL4 arm (antibody, V domains shown, DVD-Ig inner) VH: EVQLQQSGPELEKPGASVKISCKASGYSFTGYNMNWVKQSNGKSLEWIGNIDPYFGGTNYNQKFKGKATLTVDKSSSTAYMQLKSLTSEDSAVYYCARNYDYDGGCFDYWGQGTTLTVSS VL: QAVVTQESALTTSPGETVTLTCRSSTGAVTTSNYANWVQEKPDHLFTGLIGGTNNRAPGVPARFSGSLIGDKAALTITGAQTEDEAIYFCALWYSNHWVFGGGTKLTVLG"
9,220,"DVD530 DLL4 arm (antibody, V domains shown, DVD-Ig inner) VH: EVQLQQSGPELEKPGASVKISCKASGYSFTGYNMNWVKQSNGKSLEWIGNIDPYFGGTNYNQKFKGKATLTVDKSSSTAYMQLKSLTSEDSAVYYCARNYDYDGGCFDYWGQGTTLTVSS VL: QAVVTQESALTTSPGETVTLTCRSSTGAVTTSNYANWVQEKPDHLFTGLIGGTNNRAPGVPARFSGSLIGDKAALTITGAQTEDEAIYFCALWYSNHWVFGGGTKLTVLG"
10,530,"DVD504 DLL4 arm (antibody, V domains shown, DVD-Ig inner) VH: EVQLQQSGPELVKPGASVKMSCKASGYTFTSYVINWVKQKPGQGLEWIGLINPYNDGTKYNEKFKVKATLTSDKSSSTAYMELSSLTSEDSAVYYCASYYYGSRYYFDYWGQGTTLTVSS VL: DIQMTQSSSYLSVSLGGRVTITCKASDHINNWLAWYQQKPGNAPRLLISGATSLETGVPSRFSGSGSGKDYTLSITSLQTEDVATYYCQQYWSIPLTFGAGTKLELKR"
11,1770,"DVD492 DLL4 arm (antibody, V domains shown, DVD-Ig inner) VH: EVQLQQSGPELVKPGASVKMSCKASGYTFTSYVINWVKQKPGQGLEWIGLINPYNDGTKYNEKFKVKATLTSDKSSSTAYMELSSLTSEDSAVYYCASYYYGSRYYFDYWGQGTTLTVSS VL: DIQMTQSSSYLSVSLGGRVTITCKASDHINNWLAWYQQKPGNAPRLLISGATSLETGVPSRFSGSGSGKDYTLSITSLQTEDVATYYCQQYWSIPLTFGAGTKLELKR"
12,180,"DVD501 DLL4 arm (antibody, V domains shown, DVD-Ig outer) VH: EVQLQQSGPELVKPGASVKMSCKASGYTFTSYVINWVKQKPGQGLEWIGLINPYNDGTKYNEKFKVKATLTSDKSSSTAYMELSSLTSEDSAVYYCASYYYGSRYYFDYWGQGTTLTVSS VL: DIQMTQSSSYLSVSLGGRVTITCKASDHINNWLAWYQQKPGNAPRLLISGATSLETGVPSRFSGSGSGKDYTLSITSLQTEDVATYYCQQYWSIPLTFGAGTKLELKR"
13,330,"DVD503 DLL4 arm (antibody, V domains shown, DVD-Ig outer) VH: EVQLQQSGPELVKPGASVKMSCKASGYTFTSYVINWVKQKPGQGLEWIGLINPYNDGTKYNEKFKVKATLTSDKSSSTAYMELSSLTSEDSAVYYCASYYYGSRYYFDYWGQGTTLTVSS VL: DIQMTQSSSYLSVSLGGRVTITCKASDHINNWLAWYQQKPGNAPRLLISGATSLETGVPSRFSGSGSGKDYTLSITSLQTEDVATYYCQQYWSIPLTFGAGTKLELKR"
14,320,"DVD506 DLL4 arm (antibody, V domains shown, DVD-Ig inner) VH: EVQLQQSGPELVKPGASVKMSCKASGYTFTSYVINWVKQKPGQGLEWIGLINPYNDGTKYNEKFKVKATLTSDKSSSTAYMELSSLTSEDSAVYYCASYYYGSRYYFDYWGQGTTLTVSS VL: DIQMTQSSSYLSVSLGGRVTITCKASDHINNWLAWYQQKPGNAPRLLISGATSLETGVPSRFSGSGSGKDYTLSITSLQTEDVATYYCQQYWSIPLTFGAGTKLELKR"
15,3170,"DVD502 DLL4 arm (antibody, V domains shown, DVD-Ig inner) VH: EVQLQQSGPELVKPGASVKMSCKASGYTFTSYVINWVKQKPGQGLEWIGLINPYNDGTKYNEKFKVKATLTSDKSSSTAYMELSSLTSEDSAVYYCASYYYGSRYYFDYWGQGTTLTVSS VL: DIQMTQSSSYLSVSLGGRVTITCKASDHINNWLAWYQQKPGNAPRLLISGATSLETGVPSRFSGSGSGKDYTLSITSLQTEDVATYYCQQYWSIPLTFGAGTKLELKR"
16,5590,"DVD496 DLL4 arm (antibody, V domains shown, DVD-Ig inner) VH: EVQLQQSGPELVKPGASVKMSCKASGYTFTSYVINWVKQKPGQGLEWIGLINPYNDGTKYNEKFKVKATLTSDKSSSTAYMELSSLTSEDSAVYYCASYYYGSRYYFDYWGQGTTLTVSS VL: DIQMTQSSSYLSVSLGGRVTITCKASDHINNWLAWYQQKPGNAPRLLISGATSLETGVPSRFSGSGSGKDYTLSITSLQTEDVATYYCQQYWSIPLTFGAGTKLELKR"
17,390,"DVD491 DLL4 arm (antibody, V domains shown, DVD-Ig outer) VH: EVQLQQSGPELVKPGASVKMSCKASGYTFTSYVINWVKQKPGQGLEWIGLINPYNDGTKYNEKFKVKATLTSDKSSSTAYMELSSLTSEDSAVYYCASYYYGSRYYFDYWGQGTTLTVSS VL: DIQMTQSSSYLSVSLGGRVTITCKASDHINNWLAWYQQKPGNAPRLLISGATSLETGVPSRFSGSGSGKDYTLSITSLQTEDVATYYCQQYWSIPLTFGAGTKLELKR"
18,890,"DVD471 DLL4 arm (antibody, DVD-Ig outer) chain 1: EVQLVESGGGLVQPGGSLRLSCAASGFTFTDNWISWVRQAPGKGLEWVGYISPNSGFTYYADSVKGRFTISADTSKNTAYLQMNSLRAEDTAVYYCARDNFGGYFDYWGQGTLVTVSS chain 2: DIQMTQSPSSLSASVGDRVTITCRASQDVSTAVAWYQQKPGKAPKLLIYSASFLYSGVPSRFSGSGSGTDFTLTISSLQPEDFATTYYCQQSYTGTVTFGQGTKVEIKR"
19,1690,"DVD479 DLL4 arm (antibody, DVD-Ig outer) chain 1: EVQLVESGGGLVQPGGSLRLSCAASGFTFTDNWISWVRQAPGKGLEWVGYISPNSGFTYYADSVKGRFTISADTSKNTAYLQMNSLRAEDTAVYYCARDNFGGYFDYWGQGTLVTVSS chain 2: DIQMTQSPSSLSASVGDRVTITCRASQDVSTAVAWYQQKPGKAPKLLIYSASFLYSGVPSRFSGSGSGTDFTLTISSLQPEDFATTYYCQQSYTGTVTFGQGTKVEIKR"
20,300,"DVD476 DLL4 arm (antibody, DVD-Ig inner) chain 1: EVQLVESGGGLVQPGGSLRLSCAASGFTFTDNWISWVRQAPGKGLEWVGYISPNSGFTYYADSVKGRFTISADTSKNTAYLQMNSLRAEDTAVYYCARDNFGGYFDYWGQGTLVTVSS chain 2: DIQMTQSPSSLSASVGDRVTITCRASQDVSTAVAWYQQKPGKAPKLLIYSASFLYSGVPSRFSGSGSGTDFTLTISSLQPEDFATTYYCQQSYTGTVTFGQGTKVEIKR"
21,600,"DVD480 DLL4 arm (antibody, DVD-Ig inner) chain 1: EVQLVESGGGLVQPGGSLRLSCAASGFTFTDNWISWVRQAPGKGLEWVGYISPNSGFTYYADSVKGRFTISADTSKNTAYLQMNSLRAEDTAVYYCARDNFGGYFDYWGQGTLVTVSS chain 2: DIQMTQSPSSLSASVGDRVTITCRASQDVSTAVAWYQQKPGKAPKLLIYSASFLYSGVPSRFSGSGSGTDFTLTISSLQPEDFATTYYCQQSYTGTVTFGQGTKVEIKR"
22,3300,"DVD481 DLL4 arm (antibody, DVD-Ig outer) chain 1: EVQLVESGGGLVQPGGSLRLSCAASGFTFTDNWISWVRQAPGKGLEWVGYISPNSGFTYYADSVKGRFTISADTSKNTAYLQMNSLRAEDTAVYYCARDNFGGYFDYWGQGTLVTVSS chain 2: DIQMTQSPSSLSASVGDRVTITCRASQDVSTAVAWYQQKPGKAPKLLIYSASFLYSGVPSRFSGSGSGTDFTLTISSLQPEDFATTYYCQQSYTGTVTFGQGTKVEIKR"

# From patent US9029508 (dated 2015)
